The record followed here is the RNAGym collection of RNA variant scans (doi:10.7554/elife.80360).

B1: Hairpin Ribozyme (parent)
chain: GUCCUCUUUCACGUGCGCGUGAAAGAGAGAAGUGAACCAGAGAAACACACGUUGUGGUAUAUUACCUGGUA

Variants of B1 are the subject of the series. The series is described as follows: self-cleavage, relative activity (ratio to wild type); higher = more cleavage; co-transcriptional.
With G69C A71U, the self-cleavage is 0.57.
The value for C65G U67G was 0.0652; that for G68C was 0.212; that for G68A was 0.282.
As to G68U, the self-cleavage is 0.254.
The value for U67A U70C was 0.247; that for C65G U70C was 0.189; that for C65G U70G was 0.19.
As for A64U U67G, the figure is 0.13.
As for C66U U70C, the figure is 0.506; as for C66U U70A, 0.356.
With C66A G68A, the self-cleavage was determined as 0.126.
The value for C65A A71C was 1.07; that for G68A U70C was 0.336.
With G68A U70G, the self-cleavage was found to be 0.3.
The value for U67G U70A was 0.214; that for U67G U70G was 0.125; that for U67G U70C was 0.588.
The value for A64U was 0.181; that for G68C G69A was 0.152; that for G68C G69C was 0.206.
As for A64U G68C, the figure is 0.213.
On to A64U C66A, for which the self-cleavage is 0.156.
With A64U C66G, the self-cleavage is 0.069.
For U67G G68A, the self-cleavage worked out at 0.138.
As for C66U G68A, the figure is 0.0865; as for C66U G68U, 0.334; as for U67A G69U, 0.321.
The value for A64G G69U was 0.116; that for C66G G69C was 0.145.
On to C66G G69U, for which the self-cleavage worked out at 0.0961.
The value for U67C G68C was 0.178; that for U70G A71G was 1.82.
The value for C66G U67C was 0.219; that for A64G G68U was 0.19.
As for C66A A71U, the figure is 0.184; as for C66A A71C, 0.445.
With C66G U70A, the self-cleavage is 0.273.
The value for C66G U70G was 0.2.
As for C66G U70C, the figure is 0.132.
As for G68U G69C, the figure is 0.136; as for C65U U67A, 0.309.
On to C65A U70A, for which the self-cleavage stood at 0.686.
As to G68U U70C, the self-cleavage was found to be 0.201.
For the variant G68U U70A, the self-cleavage stood at 0.269.
In the case of G68C U70G, the self-cleavage stood at 0.576.
As for A71C, the figure is 1.42; as for A71G, 1.04; as for A71U, 0.796.
The value for G68A G69C was 0.19; that for G68A G69A was 0.103; that for U67C G69C was 0.188.
As for U67C A71C, the figure is 0.359; as for U67C A71G, 0.132; as for A64U G69A, 0.115.
Consider A64U C65G, for which the self-cleavage was 0.188.
As for C65U G68A, the figure is 0.249; as for U67G G69U, 0.165.
As for U67G G69C, the figure is 0.13; as for C66A G69C, 0.239; as for C66A G69U, 0.156.
For the variant U70A A71G, the self-cleavage was 0.886.
With U70A A71U, the self-cleavage worked out at 1.63.
The value for A64U A71U was 0.305; that for C66U A71G was 0.484.
As for C66U A71U, the figure is 0.417; as for C66G G68C, 0.0397; as for C66G G68U, 0.0439.
The value for G69U U70A was 0.346; that for U67G was 0.28; that for U67C was 0.227.
Consider U67A, for which the self-cleavage is 0.229.
As for C66U U67A, the figure is 0.162; as for C66A U67C, 0.159; as for G69C U70G, 0.657.
With C65A C66G, the self-cleavage was found to be 0.0953.
As for G69A U70A, the figure is 0.434.
As to G68A A71G, the self-cleavage was 0.174.
As for U67G A71C, the figure is 0.37; as for A64U U70A, 0.257; as for C65G A71U, 0.219.
As for C65G A71G, the figure is 0.187; as for C65G A71C, 0.697; as for C65U U70G, 0.148.
As for C65U U70C, the figure is 0.111; as for C66A U70G, 0.176; as for C66A U70C, 0.305.
For the variant A64G U70A, the self-cleavage turned out to be 0.597.
As for A64G U70G, the figure is 0.47.
